# Reference: patent US20230242592A1, “IDENTIFICATION OF […] PEPTIDES AND USES THEREOF” (priority 2020, published 2023)
# Legend:
# [1] = biological target: RBD-His (Sino Biological) (SARS-CoV-2) (UniProt P0DTC2); experiment: BLI (summary of the working examples)
# [2] = biological target: RBD-His (Sino Biological) (SARS-CoV-2) (UniProt P0DTC2); experiment: BLI steady-state, CR3022 on anti-human IgG Fc tips, RBD-His as analyte
substance,measurement,setting,value
"neutralizing monoclonal IgG antibody against the SARS-CoV-2 spike glycoprotein (CR3022, antibodies-online)",Kd,[1],6 nM
same,Kd,[2],8.6 nM
